Measurements published in publication PMC3836487.

Biological target: CFP
Test: FRET or BRET; acceptor photobleaching FRET in live C. crescentus cells on 1 % agarose pads; YFP (acceptor) bleached for 20 s at 532 nm, increase of CFP (donor) emission recorded; cells grown in M2G, 0.3 % xylose for 1 h; apparent FRET efficiency, above 0.5 % taken as an interaction, above 1 % as a strong one

- apparent FRET efficiency: < 0.5%
Substance: YFP
